This passage reports Kd results from article PMC3584034.

The target of data set [1] is T1, EpCAM (human (breast and colon cancer cell lines)) (UniProt P16422).
T1 sequence: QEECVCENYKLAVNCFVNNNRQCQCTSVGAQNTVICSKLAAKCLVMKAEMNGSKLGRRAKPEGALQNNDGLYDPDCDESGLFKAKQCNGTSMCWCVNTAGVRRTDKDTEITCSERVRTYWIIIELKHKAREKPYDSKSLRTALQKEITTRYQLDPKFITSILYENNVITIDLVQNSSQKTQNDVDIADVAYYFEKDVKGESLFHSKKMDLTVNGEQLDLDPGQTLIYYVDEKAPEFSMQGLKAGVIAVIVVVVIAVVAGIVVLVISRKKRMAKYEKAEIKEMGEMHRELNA
Briefly: cell binding (method not given). The settings on record: 2'-fluoropyrimidine (Methods: 2'-fluoropyrimidine or 2'-O-methyl-pyrimidine bases); 3' inverted dT; FFPE staining: PBS, 5 mM MgCl2, 0.1 mg/mL tRNA, 1 mg/mL BSA, 10% dextran sulphate, 500 ug/mL heparin, 100 nM aptamer, 15 min, 37 C; flow cytometry: 100 nM …. (A flow cytometer gives signals particle by particle.)

For data set [2], the target named is T1, EpCAM (human (breast and colon cancer cell lines)). Briefly: cell binding (cited). The settings on record: 2'-fluoropyrimidine (Methods: 2'-fluoropyrimidine or 2'-O-methyl-pyrimidine bases); 3' inverted dT; FFPE staining: PBS, 5 mM MgCl2, 0.1 mg/mL tRNA, 1 mg/mL BSA, 10% dextran sulphate, 500 ug/mL heparin, 100 nM aptamer, 15 min, 37 C; flow cytometry: 100 nM …; cited from earlier work.

Turning to ACGUAUCCCUUUUCGCGUA [Ep23], the Kd (commonly the equilibrium constant for the complex coming apart) in data set [1] stood at 37 nM.
For the sequence GCGACUGGUUACCCGGUCG [DT3], in data set [2], the dissociation constant (Kd) is 158 nM.
